# From IntAct's records for PubMed 21212807
# B1: TRAF family member-associated NF-kappa-B activator (Homo sapiens), Q92844 (parent)
# chain: MDKNIGEQLNKAYEAFRQACMDRDSAVKELQQKTENYEQRIREQQEQLSLQQTIIDKLKSQLLLVNSTQDNNYGCVPLLEDSETRKNNLTLDQPQDKVISGIAREKLPKVRRQEVSSPRKETSARSLGSPLLHERGNIEKTFWDLKEEFHKICMLAKAQKDHLSKLNIPDTATETQCSVPIQCTDKTDKQEALFKPQAKDDINRGAPSITSVTPRGLCRDEEDTSFESLSKFNVKFPPMDNDSTFLHSTPERPGILSPATSEAVCQEKFNMEFRDNPGNFVKTEETLFEIQGIDPIASAIQNLKTTDKTKPSNLVNTCIRTTLDRAACLPPGDHNALYVNSFPLLDPSDAPFPSLDSPGKAIRGPQQPIWKPFPNQDSDSVVLSGTDSELHIPRVCEFCQAVFPPSITSRGDFLRHLNSHFNGET
# partner: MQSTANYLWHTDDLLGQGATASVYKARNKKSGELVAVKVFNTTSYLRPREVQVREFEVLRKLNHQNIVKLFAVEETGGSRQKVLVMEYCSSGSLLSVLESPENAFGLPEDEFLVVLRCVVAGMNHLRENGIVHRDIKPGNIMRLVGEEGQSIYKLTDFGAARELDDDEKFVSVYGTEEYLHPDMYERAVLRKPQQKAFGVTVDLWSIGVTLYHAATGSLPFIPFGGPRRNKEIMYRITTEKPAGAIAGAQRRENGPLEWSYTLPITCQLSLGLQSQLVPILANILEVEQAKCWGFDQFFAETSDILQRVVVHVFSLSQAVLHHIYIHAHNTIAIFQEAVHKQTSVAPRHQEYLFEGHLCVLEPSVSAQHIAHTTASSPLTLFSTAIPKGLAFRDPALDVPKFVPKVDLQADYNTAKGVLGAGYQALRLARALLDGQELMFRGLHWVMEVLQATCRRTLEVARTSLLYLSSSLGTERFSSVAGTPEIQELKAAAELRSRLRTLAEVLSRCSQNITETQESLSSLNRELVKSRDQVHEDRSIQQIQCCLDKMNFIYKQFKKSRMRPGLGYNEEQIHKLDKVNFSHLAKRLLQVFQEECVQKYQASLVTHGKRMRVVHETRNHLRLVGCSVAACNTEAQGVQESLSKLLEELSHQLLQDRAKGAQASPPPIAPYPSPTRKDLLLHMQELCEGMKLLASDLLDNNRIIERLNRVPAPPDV
# Variants of: B1
# Conditions: with ikke_human IKBKE
row,effect of a mutation on the interaction,Variant
1,increasing interaction,K282R
